Results published in the Human Domainome abundance scans (Beltran et al. 2025).
± gives the uncertainty stated by the source.

B1: Poly(rC)-binding protein 1, residues 278 to 350; numbered along this chain, Q15365 (parent)
chain: TQTTHELTIPNNLIGCIIGRQGANINEIRQMSGAQIKIANPVEGSSGRQVTITGSAASISLAQYLINARLSSE

Variants of: B1
Test: abundance fitness (aPCA) (normalised: wild type 0, dead -1); higher = more abundant; growth selection in yeast, the domain comes from the species named
Settings: Homo sapiens

Variant | abundance fitness
C16Q | 0.01 ± 0.055
C16R | 0.138 ± 0.033
C16S | -0.042 ± 0.051
C16T | 0.131 ± 0.063
C16V | -0.083 ± 0.049
C16W | -0.092 ± 0.05
C16Y | -0.209 ± 0.21
I17A | -0.715 ± 0.083
I17C | -0.928 ± 0.26
I17D | -0.506 ± 0.15
I17E | -0.782 ± 0.2
I17F | -0.177 ± 0.13
I17G | -0.585 ± 0.081
I17H | -0.831 ± 0.2
I17K | -1.09 ± 0.29
I17L | -0.022 ± 0.039
I17M | -0.562 ± 0.086
I17P | -1.17 ± 0.24
I17Q | -0.878 ± 0.14
I17R | -0.98 ± 0.087
I17S | -0.733 ± 0.091
I17T | -0.6 ± 0.11
I17V | -0.106 ± 0.05
I17W | -0.663 ± 0.1

Variant | abundance fitness
I17Y | -0.665 ± 0.2
I18A | -0.316 ± 0.048
I18C | -0.616 ± 0.097
I18D | -0.39 ± 0.091
I18E | -0.118 ± 0.068
I18F | -0.321 ± 0.13
I18G | -0.565 ± 0.077
I18H | -0.767 ± 0.15
I18K | -0.435 ± 0.07
I18L | -0.355 ± 0.041
I18N | -0.156 ± 0.13
I18P | -0.808 ± 0.1
I18Q | -0.756 ± 0.087
I18R | -0.636 ± 0.049
I18S | -0.433 ± 0.059
I18T | -0.218 ± 0.054
I18V | -0.367 ± 0.046
I18W | -0.232 ± 0.047
G19A | -0.481 ± 0.068
G19D | -0.321 ± 0.16
G19E | -0.431 ± 0.091
G19H | -0.833 ± 0.5
G19I | -0.583 ± 0.25
G19K | -0.194 ± 0.13

Variant | abundance fitness
G19L | -0.815 ± 0.13
G19M | -0.774 ± 0.17
G19N | -0.655 ± 0.35
G19P | -0.423 ± 0.1
G19Q | -0.532 ± 0.11
G19R | -0.609 ± 0.067
G19S | -0.473 ± 0.082
G19T | -0.732 ± 0.15
G19V | -0.991 ± 0.12
G19W | -0.831 ± 0.13
R20A | 0.028 ± 0.038
R20C | -0.04 ± 0.068
R20D | 0.042 ± 0.12
R20E | 0.012 ± 0.062
R20F | 0.1 ± 0.1
R20G | -0.173 ± 0.038
R20H | 0.139 ± 0.1
R20I | -0.074 ± 0.12
R20K | 0.048 ± 0.071
R20L | -0.035 ± 0.04
R20M | -0.138 ± 0.064
R20N | 0.27 ± 0.09
R20P | 0.155 ± 0.053
R20Q | -0.008 ± 0.064

Variant | abundance fitness
R20S | -0.082 ± 0.043
R20T | -0.167 ± 0.067
R20V | -0.031 ± 0.043
R20W | -0.188 ± 0.053
R20Y | 0.019 ± 0.093
Q21C | -0.281 ± 0.061
Q21D | -0.134 ± 0.076
Q21E | -0.09 ± 0.041
Q21F | -0.236 ± 0.068
Q21G | -0.106 ± 0.041
Q21H | -0.032 ± 0.083
Q21I | -0.844 ± 0.22
Q21K | 0.081 ± 0.047
Q21L | -0.437 ± 0.04
Q21M | -0.322 ± 0.054
Q21N | 0.052 ± 0.078
Q21P | -0.568 ± 0.066
Q21R | -0.012 ± 0.033
Q21S | -0.09 ± 0.038
Q21T | -0.207 ± 0.046
Q21W | -0.339 ± 0.054
Q21Y | -0.217 ± 0.13
G22C | -0.113 ± 0.05
G22D | -0.249 ± 0.095

Variant | abundance fitness
G22E | 0.137 ± 0.067
G22H | -0.122 ± 0.16
G22I | -1.04 ± 0.27
G22K | -0.329 ± 0.13
G22L | -0.408 ± 0.048
G22M | -0.205 ± 0.06
G22N | 0.089 ± 0.12
G22P | -0.583 ± 0.074
G22Q | -0.228 ± 0.057
G22R | -0.271 ± 0.048
G22S | 0.01 ± 0.038
G22T | -0.373 ± 0.073
G22V | -0.703 ± 0.072
G22Y | -0.383 ± 0.18
A23C | 0.018 ± 0.067
A23D | -0.079 ± 0.12
A23E | 0.056 ± 0.069
A23F | 0.044 ± 0.15
A23G | -0.069 ± 0.053
A23H | 0.102 ± 0.093
A23I | -0.115 ± 0.13
A23K | 0.067 ± 0.072
A23L | -0.22 ± 0.051
A23M | -0.128 ± 0.076

Variant | abundance fitness
A23N | -0.167 ± 0.14
A23P | -0.401 ± 0.1
A23Q | 0.05 ± 0.061
A23R | 0.102 ± 0.043
A23V | -0.09 ± 0.064
A23W | -0.419 ± 0.089
A23Y | -0.296 ± 0.13
N24A | 0.007 ± 0.041
N24C | -0.196 ± 0.077
N24D | -0.003 ± 0.098
N24E | -0.01 ± 0.063
N24F | -0.13 ± 0.11
N24G | -0.04 ± 0.037
N24H | -0.049 ± 0.067
N24I | -0.06 ± 0.12
N24K | 0.076 ± 0.067
N24L | -0.134 ± 0.042
N24M | 0.038 ± 0.073
N24P | -0.088 ± 0.048
N24Q | 0.002 ± 0.056
N24R | 0.066 ± 0.032
N24S | -0.033 ± 0.046
N24V | -0.048 ± 0.046
N24W | -0.161 ± 0.048

Variant | abundance fitness
N24Y | 0.01 ± 0.14
I25A | -0.565 ± 0.072
I25C | -1.01 ± 0.29
I25D | -0.908 ± 0.41
I25F | -0.539 ± 0.13
I25G | -0.58 ± 0.057
I25H | 0.296 ± 0.24
I25K | -0.873 ± 0.18
I25L | -0.072 ± 0.049
I25M | -0.169 ± 0.05
I25N | -0.931 ± 0.35
I25P | -0.84 ± 0.19
I25Q | -0.564 ± 0.12
I25R | -0.803 ± 0.08
I25S | -0.674 ± 0.095
I25T | -0.367 ± 0.095
I25V | -0.308 ± 0.053
I25W | -0.622 ± 0.094
N26A | -0.002 ± 0.041
N26C | -0.196 ± 0.069
N26D | -0.08 ± 0.086
N26E | -0.035 ± 0.046
N26F | -0.354 ± 0.1
